Experimental findings from patent US7427595 (CORNELL RESEARCH FOUNDATION, dated 2008) are described below.

Data set [1] concerns the target T1, PEPI in human bronchoalveolar lavage (BAL) fluid (human, UniProt P28799 18-593).
T1 construct: Endogenous protein, immunoprecipitated with antiserum against human PEPI; also called proepithelin
T1 sequence (looked up): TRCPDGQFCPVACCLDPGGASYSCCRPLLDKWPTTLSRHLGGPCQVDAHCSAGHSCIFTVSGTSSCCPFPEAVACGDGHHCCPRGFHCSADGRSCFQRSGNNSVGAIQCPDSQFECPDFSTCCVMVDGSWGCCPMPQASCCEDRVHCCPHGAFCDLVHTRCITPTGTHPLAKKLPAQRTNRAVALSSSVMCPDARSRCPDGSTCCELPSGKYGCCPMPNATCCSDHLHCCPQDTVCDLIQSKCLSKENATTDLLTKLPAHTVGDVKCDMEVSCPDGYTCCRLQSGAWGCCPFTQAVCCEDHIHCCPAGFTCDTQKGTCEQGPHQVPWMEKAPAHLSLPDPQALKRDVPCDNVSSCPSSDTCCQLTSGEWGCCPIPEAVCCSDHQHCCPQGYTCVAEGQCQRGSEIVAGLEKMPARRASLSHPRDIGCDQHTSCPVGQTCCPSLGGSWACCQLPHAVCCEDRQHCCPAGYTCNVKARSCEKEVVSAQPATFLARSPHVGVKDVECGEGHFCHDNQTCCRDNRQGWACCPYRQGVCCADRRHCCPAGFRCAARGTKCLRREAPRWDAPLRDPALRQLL
As to the kind of experiment: immunoprecipitation of PEPI from BAL fluids of two individuals, anti-SLPI blot. How it is done:
BAL fluids were collected from healthy adult subjects according to an institutional review board-approved protocol following informed consent. The fluids (45 ml each) were concentrated to 0.5 ml in a Centriprep (Millipore) with 10 kDa cut-off before immunoprecipitation with antiserum against human PEPI and western blotting with antisera against human SLPI or human PEPI.
To test if a SLPI-PEPI complex exists in vivo normal human bronchoalveolar lavage (BAL) fluid samples were examined because both SLPI and PEPI are strongly expressed in airway epithelium (Abe et al., 1991; Daniel et al., 2000). PEPI was immunoprecipitated from the BAL fluids collected from two individuals, and SLPI was detected in the PEPI immunoprecipitates (FIG. 2D). Thus, the SLPI-PEPI complex is physiologic.

For data set [2], the target named is T2, partial mouse PEPI (1180 bp of the ORF) in fusion with the activation domain of GAL4 (GAL4-AD), 21 two-hybrid … (yeast; mouse, UniProt P28798 197-589, limits assumed).
T2 construct: EPIs G and F absent; also called proepithelin
T2 sequence: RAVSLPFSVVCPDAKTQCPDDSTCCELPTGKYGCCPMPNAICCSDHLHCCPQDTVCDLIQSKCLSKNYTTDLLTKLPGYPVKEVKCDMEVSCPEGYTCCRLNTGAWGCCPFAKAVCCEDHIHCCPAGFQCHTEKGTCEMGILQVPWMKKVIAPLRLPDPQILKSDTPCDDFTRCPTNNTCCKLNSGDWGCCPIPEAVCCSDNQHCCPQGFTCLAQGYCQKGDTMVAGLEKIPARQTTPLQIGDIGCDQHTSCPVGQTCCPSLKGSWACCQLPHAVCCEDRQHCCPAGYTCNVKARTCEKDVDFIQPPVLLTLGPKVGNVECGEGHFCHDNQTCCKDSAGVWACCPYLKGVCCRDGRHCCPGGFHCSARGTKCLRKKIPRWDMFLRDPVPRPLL
As to the kind of experiment: yeast two-hybrid, growth without histidine and LacZ expression.

For data set [3], the target named is T3, recombinant human SLPI (Amgen) (human, UniProt P03973 26-132).
T3 construct: Obtained from Amgen; also called SLPIwt; wild type human SLPI
As to the kind of experiment: reciprocal co-immunoprecipitation of pure recombinant proteins (anti-FLAG M2 and anti-SLPI), western blot. The source says:
PEPI and SLPI were transiently expressed in HEK293 or COS-1 cells. FLAG-tagged PEPI (aa 18-593) was expressed from pCMVI-FLAG and SLPI constructs from pcDNA3.1 (Invitrogen). SLPI constructs included mouse full length (aa 1-131), mouse N-terminal domain (aa 1-80), mouse C-terminal domain (aa 1-25/81-131), and human full-length (aa 1-131). Three days following co-transfection via SuperFect reagent (Qiagen), conditioned media were immunoprecipitated with FLAG M2 antibody (Sigma), separated by reducing SDS-PAGE and western blotted with anti-SLPI antibody (Jin et al., 1997). For in vitro immunoprecipitation assays, recombinant human PEPI or EPI (FLAG-tagged) and SLPI (5 pmol each) were incubated in 10 mM Tris-HCl (pH 7.5), 150 mM NaCl at 37° C. for 30 min before immunoprecipitation with anti-FLAG M2 antibody and western blotting with anti-SLPI antibody or the reverse.
Next, experiments were performed to ascertain which part of PEPI binds to SLPI (for the order of EPIs in PEPI, see FIG. 1A). EPIs G and F were absent in the partial PEPI sequences isolated as SLPI-binding proteins in yeast (FIG. 1A) and thus were dispensable for the interaction. […] When FLAG-tagged recombinant human EPI A or EPI B was incubated with recombinant human SLPI at an equimolar ratio (FIG. 2E) or at a molar ratio of A (or B):SLPI::1:5 (not shown), SLPI was not detected in EPI immunoprecipitates or vice versa. […]
(Immunoblotting shows a protein as a band on a membrane.)

For data set [4], the target named is T4, recombinant human SLPI (Amgen).
T4 chain: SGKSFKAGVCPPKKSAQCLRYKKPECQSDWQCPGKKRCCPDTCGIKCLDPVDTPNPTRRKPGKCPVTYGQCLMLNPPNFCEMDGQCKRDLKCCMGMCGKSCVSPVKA

Data set [5] addresses T5, recombinant mouse SLPI (Amgen).
T5 chain: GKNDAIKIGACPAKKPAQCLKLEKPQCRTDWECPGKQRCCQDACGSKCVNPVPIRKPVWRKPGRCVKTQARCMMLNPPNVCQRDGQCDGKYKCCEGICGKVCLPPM

B1: SLPI in human bronchoalveolar lavage (BAL) fluid (other, UniProt P03973 26-132, looked up)
chain: SGKSFKAGVCPPKKSAQCLRYKKPECQSDWQCPGKKRCCPDTCGIKCLDPVDTPNPTRRKPGKCPVTYGQCLMLNPPNFCEMDGQCKRDLKCCMGMCGKSCVSPVKA
notes: Endogenous protein
Consider B1, for which the binding result in data set [1] is recorded as “binds”.

B2: lamin C (other, UniProt P02545-2 67-230, looked up)
chain: EEVVSREVSGIKAAYEAELGDARKTLDSVAKERARLQLELSKVREEFKELKARNTKKEGDLIAAQARLKDLEALLNSKEAALSTALSEKRTLEGELHDLRGQVAKLEAALGEAKKQLQDEMLRRVDAENRLQTMKEELDFQKNIYSEELRETKRRHETRLVEID
notes: Non-specific control in the yeast two-hybrid test
For B2, in data set [2], the binding result was “no binding”.

B3: recombinant human EPI A (aa 281-337) with an N-terminal FLAG-6xHis tag, from insect cells (other)
chain: DVKCDMEVSCPDGYTCCRLQSGAWGCCPFTQAVCCEDHIHCCPAGFTCDTQKGTCEQ
notes: the construct is stated as aa 281-337; also called epithelin A; not shown: N-terminal FLAG-6xHis tag
Turning to B3, the binding result in data set [3] is on record as “no binding”.

B4: recombinant human EPI B (aa 206-261) with an N-terminal FLAG-6xHis tag, from insect cells (other)
chain: VMCPDARSRCPDGSTCCELPSGKYGCCPMPNATCCSDHLHCCPQDTVCDLIQSKCL
notes: also called epithelin B; not shown: N-terminal FLAG-6xHis tag
Take B4: the binding result in data set [3] is on record as “no binding”.

B5: human neutrophil elastase (Sigma) (protein)
chain: IVGGRRARPHAWPFMVSLQLRGGHFCGATLIAPNFVMSAAHCVANVNVRAVRVVLGAHNLSRREPTRQVFAVQRIFENGYDPVNLLNDIVILQLNGSATINANVQVAQLPAQGRRLGNGVQCLAMGWGLLGRNRGIASVLQELNVTVVTSLCRRSNVCTLVRGRQAGVCFGDSGSPLVCNGLIHGIASFVRGGCASGLYPDAFAPVAQFVNWIDSIIQ
As to B5, the “cleavage of PEPI by elastase (anti-FLAG western blot)” value in data set [4] is “human and mouse SLPI did block the cleavage of human PEPI by elastase, human SLPI being the more potent”; in data set [5], “human and mouse SLPI did block the cleavage of human PEPI by elastase, human SLPI being the more potent”.
